Source: publication PMC9686918 (2022)

Columns and labels:
[1] = target: T1, Methylglyoxal-modified human serum albumin (HSA-MG) (Homo sapiens, UniProt P02768); assay: ELISA (Scatchard plot)
[2] = target: T1, Methylglyoxal-modified human serum …; assay: peroxidase activity inhibition (ABTS varied)
[3] = target: T1, Methylglyoxal-modified human serum …; assay: peroxidase activity inhibition (ABTS, H2O2 varied)
[4] = target: T1, Methylglyoxal-modified human serum …; assay: chlorinating activity inhibition (celestine blue B, NaCl varied)
[5] = target: T1, Methylglyoxal-modified human serum …; assay: chlorinating activity inhibition (celestine blue B, H2O2 varied)

Kd [1]: 1.5 nM
Ki [2]: 1080 nM
Ki [3]: 840 nM
Ki [4]: 940 nM
Ki [5]: 800 nM
B1: Myeloperoxidase (protein)
chain: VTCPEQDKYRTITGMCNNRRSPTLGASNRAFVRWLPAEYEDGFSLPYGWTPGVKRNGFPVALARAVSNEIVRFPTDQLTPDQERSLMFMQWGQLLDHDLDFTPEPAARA
modifications: methylglyoxal-modified HSA
